Data taken from patent publication US20080020984A1, “Crystal Structure of a Receptor-Ligand Complex and Methods of Use” (priority 2006, published 2008).
Substitutions are numbered along the chain they refer to. Each block holds one compound with its values, some of them ahead of it. Where a SMILES comes first, the peptide text is derived from it. Where no end group is shown, it is not given here. The star is where a group is joined. X1 = CC1N=c2c(cc3c(c2S(=O)(=O)O)Oc2c(cc4c(c2S(=O)(=O)O)NC(C)C4(C)C)C=3c2ccc(C(=O)*)cc2)C1(C)C

Columns and labels:
[1] = molecular target: Alexa-532-TNYL-RAW peptide; assay: fluorescence polarization, EphB4 titrated into 75 nM Alexa-532-TNYL-RAW
[2] = molecular target: Alexa-532-TNYL-RAW peptide; assay: fluorescence polarization
EphB4 A186S = molecular target: T1, EphB4 A186S (Homo sapiens, UniProt P54760, A186S); assay: Fluorescence polarization binding of Alexa-532-TNYL-RAW, EphB4 A186S; conditions: FP; EphB4 mutant Ala186Ser
T1 construct: GP64 signal peptide (N, cleaved yes); made in house; host or cells: Hi5 insect cells (baculovirus, secreted)
T1 sequence (P54760 17-196 A186S): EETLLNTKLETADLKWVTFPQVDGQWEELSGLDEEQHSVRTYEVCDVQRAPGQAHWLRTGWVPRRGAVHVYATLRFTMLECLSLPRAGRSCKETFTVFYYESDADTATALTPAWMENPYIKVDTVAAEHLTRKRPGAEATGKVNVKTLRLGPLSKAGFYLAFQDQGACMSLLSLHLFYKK
Protocol: (§1) This Example illustrates fluorescence polarization (FP) assays using a fluorescently-labeled reporter peptide to measure binding of various ligands to the EphB4-LBD.
(§2) All experimental data were analyzed using Prism 4.0 software (GraphPad Software Inc., San Diego, Calif.) and Kd values were generated by fitting the experimental data using a one-site binding hyperbola nonlinear regression model or equation 8.10 (.www.invitrogen.com/downloads/FP8.pdf).
(§3) The construct was sequence verified, and baculovirus was generated with homologous recombination into Sapphire Baculovirus DNA (Orbigen, San Diego, Calif.) following the manufacturer's protocol (10). The wtEphB4 construct was used as a template for generation of site specific mutants.

EphB4 L95R = molecular target: T2, EphB4 L95R (Homo sapiens, UniProt P54760, L95R); assay: Fluorescence polarization binding of Alexa-532-TNYL-RAW, EphB4 L95R; conditions: EphB4 Leu95Arg mutant
T2 construct: GP64 signal peptide (N, cleaved yes); made in house; host or cells: Hi5 insect cells (baculovirus, secreted)
T2 sequence (P54760 17-196 L95R): T1 sequence (P54760 17-196 A186S) with L79R, S170A
Protocol: as §1, §2, §3

EphB4 T147F = molecular target: T3, EphB4 T147F (Homo sapiens, UniProt P54760, T147F); assay: Fluorescence polarization binding of Alexa-532-TNYL-RAW, EphB4 T147F; conditions: FP; EphB4 mutant Thr147Phe
T3 construct: GP64 signal peptide (N, cleaved yes); made in house; host or cells: Hi5 insect cells (baculovirus, secreted)
T3 sequence (P54760 17-196 T147F): T1 sequence (P54760 17-196 A186S) with T131F, S170A
Protocol: as §1, §2, §3

EphB4 K149Q = molecular target: T4, EphB4 K149Q (Homo sapiens, UniProt P54760, K149Q); assay: Fluorescence polarization binding of Alexa-532-TNYL-RAW, EphB4 K149Q; conditions: FP; EphB4 mutant Lys149Gln
T4 construct: GP64 signal peptide (N, cleaved yes); made in house; host or cells: Hi5 insect cells (baculovirus, secreted)
T4 sequence (P54760 17-196 K149Q): T1 sequence (P54760 17-196 A186S) with K133Q, S170A
Protocol: as §1, §2, §3

[3] = molecular target: human EphB4 (17-196) K149Q mutant (human); assay: ITC
[4] = molecular target: human EphB4 (17-196) L95R mutant (human); assay: ITC
[5] = molecular target: human EphB4 (17-196) K149Q mutant (human); assay: ITC, 25 °C
[6] = molecular target: human EphB4 (17-196) ligand binding domain, wild type (human); assay: ITC, 25 °C
[7] = molecular target: human EphB4 (17-196) K149Q mutant (human); assay: FP competition, unlabeled TNYL-RAW against Alexa-532-TNYL-RAW on EphB4 K149Q (FIG. 7)
[8] = molecular target: human EphB4 (17-196) K149Q mutant (human); assay: ITC, 25 °C, 50 mM Tris pH 7.8, 150 mM NaCl, 1 mM CaCl2
[9] = molecular target: human EphB4 (17-196) ligand binding domain, wild type (human); assay: as above
[10] = molecular target: human EphB4 (17-196) L95R mutant (human); assay: ITC, 25 °C, 2 mM TNYL-RAW in the syringe, 15 µM EphB4 (L95R) in the cell; fit assuming stoichiometry of 1
[11] = molecular target: human EphB4 (17-196) ligand binding domain, wild type (human); assay: FP competition, unlabeled TNYL-RAW against Alexa-532-TNYL-RAW on wtEphB4 (FIG. 7)
[12] = molecular target: T5, human EphB4 ephrin-binding domain, EphB4 (wt), EphB4 (17-196) (Homo sapiens, UniProt P54760); assay: Isothermal titration calorimetry (ITC), wild-type EphB4; conditions: Table 5, receptor EphB4 (wt)
T5 sequence (P54760 17-196): T1 sequence (P54760 17-196 A186S) with S170A
Protocol: All mutants and ligands were dialyzed into buffer containing 50 mM Tris-Cl (pH 7.8), 150 mM NaCl, and 1 mM CaCl2 prior to use in isothermal titration calorimetry (ITC) experiments. All experiments were performed with a Microcal MCS ITC at 25° C. […] Data for these titrations were fit assuming a stoichiometry of 1 and at least 60% saturation at the final peptide concentration as described (19,34).
Peptides were dissolved into the same buffer used for the dialysis of EphB4. […] ITC experiments were performed with a Microcal MCS ITC at 25° C. Following an initial injection of 2 μl, titrations were performed by making 20 13 μl injections of peptide into EphB4 in the sample cell to produce an approximate final 2:1 ratio of injectant to sample in the cell. […] Prior to loading the sample cell, EphB4 was centrifuged at 18,000 g for 5 min at 4° C. to remove aggregates and degassed for 5 minutes at room temperature. […] Dilution data were fit to a line and subtracted from the corresponding titration data.

[13] = molecular target: human EphB4 (17-196) K149Q mutant (human); assay: ITC in phosphate buffer
[14] = molecular target: human EphB4 (17-196) L95R mutant (human); assay: ITC, 25 °C
[15] = molecular target: human EphB4 (17-196) L95R mutant (human); assay: ITC, 25 °C, 50 mM Tris pH 7.8, 150 mM NaCl, 1 mM CaCl2

- Kd [1]: 23 nM
- assay window [2]: 12 fold
Compound: human EphB4 (17-196) K149Q mutant (receptor)

- Kd [1]: 6.1 nM
Compound: human EphB4 (17-196) R150V mutant (receptor)

Compound: CC[C@H](C)[C@H](NC(=O)[C@@H]1CCCN1C(=O)CNC(=O)[C@H](CC(N)=O)NC(=O)[C@@H]1CCCN1C(=O)[C@H](CO)NC(=O)[C@H](Cc1ccccc1)NC(=O)[C@H](CC(C)C)NC(=O)[C@H](Cc1ccc(O)cc1)NC(=O)[C@H](CC(N)=O)NC(=O)[C@@H](NC(=O)c1ccc(C2=c3cc4c(c(S(=O)(=O)O)c3Oc3c2cc2c(c3S(=O)(=O)O)NC(C)C2(C)C)=NC(C)C4(C)C)cc1)[C@@H](C)O)C(=O)N[C@@H](C)C(=O)N[C@@H](CCCNC(=N)N)C(=O)N[C@@H](C)C(=O)N[C@@H](Cc1c[nH]c2ccccc12)C(=O)O (stereo partly shown) [Alexa-532-TNYL-RAW] (X1-TNYLFSPNGPIARAW-OH; N-terminus and C-terminus assumed)
- reduction in binding affinity versus wild type (EphB4 A186S): 4-5 fold
- binding of the peptide in FP assay (EphB4 L95R): did not exhibit significant binding
- reduction in binding affinity versus wild type (EphB4 T147F): 4-5 fold
- reduction in binding affinity versus wild type (EphB4 K149Q): 4-5 fold

- Kd [1]: 4.5 nM
Compound: human EphB4 (17-196) R148S mutant (receptor)

- fold reduction of affinity against wild-type EphB4 [3]: 3 fold
- fold reduction of affinity against wild-type EphB4 [4]: 500 fold
- Kd [5]: 250 nM
- TΔS [5]: -2.7 kcal/mol
- ΔG [5]: -9 kcal/mol
- ΔH [5]: -11.7 kcal/mol
- Kd [6]: 71 nM
- TΔS [6]: -4.9 kcal/mol
- ΔG [6]: -9.8 kcal/mol
- ΔH [6]: -14.7 kcal/mol
- Ki [7]: 170 nM
- Kd [8]: 160 nM
- TΔS [8]: -3.2 kcal/mol
- ΔG [8]: -9.4 kcal/mol
- ΔH [8]: -12.5 kcal/mol
- Kd [9]: 71 nM
- TΔS [9]: -4.9 kcal/mol
- ΔG [9]: -9.8 kcal/mol
- ΔH [9]: -14.7 kcal/mol
- Kd [10]: 35900 nM
- TΔS [10]: -5.8 kcal/mol
- ΔG [10]: -6.1 kcal/mol
- ΔH [10]: -12 kcal/mol
- Ki [11]: 100 nM
Compound: TNYL-RAW peptide

- Kd [1]: 25 nM
Compound: human EphB4 (17-196) T147F mutant (receptor)

Compound: LASPNGPIARAW [LFSP-RAW(F to A)]
- ΔH [12]: −7.9 ± 0.9 koal mol−1

- Kd [1]: 5 nM
- assay window [2]: 6 fold
Compound: human EphB4 (17-196) ligand binding domain, wild type (receptor)

- ΔHobs [13]: 3.9 kcal/mol
- Kd [5]: 20 nM
- TΔS [5]: 14.1 kcal/mol
- ΔG [5]: -10.5 kcal/mol
- ΔH [5]: 3.6 kcal/mol
- Kd [6]: 40 nM
- TΔS [6]: 13.4 kcal/mol
- ΔG [6]: -10.2 kcal/mol
- ΔH [6]: 3.3 kcal/mol
- Kd [14]: 1900 nM
- TΔS [14]: 13 kcal/mol
- ΔG [14]: -7.8 kcal/mol
- ΔH [14]: 5.2 kcal/mol
- Kd [8]: 20 nM
- TΔS [8]: 14.4 kcal/mol
- ΔG [8]: -10.6 kcal/mol
- ΔH [8]: 3.7 kcal/mol
- Kd [9]: 40 nM
- TΔS [9]: 13.4 kcal/mol
- ΔG [9]: -10.2 kcal/mol
- ΔH [9]: 3.3 kcal/mol
- Kd [15]: 1900 nM
- TΔS [15]: 13 kcal/mol
- ΔG [15]: -7.8 kcal/mol
- ΔH [15]: 5.2 kcal/mol
Compound: human ephrinB2 (extracellular domain; residues 25-187) (ligand)

Compound: CC[C@H](C)[C@H](NC(=O)[C@@H]1CCCN1C(=O)CNC(=O)[C@H](CC(N)=O)NC(=O)[C@@H]1CCCN1C(=O)[C@H](CO)NC(=O)[C@H](Cc1ccccc1)NC(=O)[C@H](CC(C)C)NC(=O)[C@H](Cc1ccc(O)cc1)NC(=O)[C@H](CC(N)=O)NC(=O)[C@@H](N)[C@@H](C)O)C(=O)N[C@@H](C)C(=O)O [TNYL]
- ΔH [12]: −9.6 ± 0.3 koal mol−1

- Kd [1]: 16 nM
Compound: human EphB4 (17-196) A186S mutant (receptor)

- Kd [1]: 21 nM
Compound: human EphB4 (17-196) RKR148-150SQV mutant (receptor)
